The source of these data is the DeepSol protein solubility set.

A short description of the data set: soluble on expression in E. coli; label from the status in PepcDB or PDB records.
With “SLVMKASVDDDDSGWELSMPEKMEKSNTNWVDITQDFEEACRELKLGELLHDKLFGLFEAMSAIEMMDPKMDAGMIGNQVNRKVLNFEQAIKDGTIKIKDLTLPELIGIMDTCFCCLITWLEGHSLAQTVFTCLYIHNPDFIEDPAMKAFALGILKICDIAREKVNKAAVFEEEDFQSMTYGFKMANSVTDLRVTGMLKDVEDDMQRRVKSTRSRQGEERDPEVELEHQQCLAVFSRVKFTRVLLTVLIAFTKKETSAVAEAQKLMVQAADLLSAIHNSLHHGIQAQNDTT”, the “soluble on expression in E. coli” value was “soluble”.

As to “MGRIYLKKAKSEEDLLKRGRPFTVEVDELKIPFCVSPVTNTFDNKKKVFLTFLGPVKQFHEAIHLCITSLYRPTPYNKYELTTNVDDLTCTPDIKNMKESYLATIKSESLNASTIDNFLSKKTSIEKLTLGMKVLDNFQEDSAIFRMKYFWFTYSLEHAPIVLSKFQGTHLWMTDANIKNEDIISFLNTWQNSECDRKIFEIKVSEGMNPLNPDIVYEDIDVSDWDPAERPKEFNFVSTFFPENFNKVYDCSTWMDIKRSGDGKIASICITSNAFKFLVWD”, the “soluble on expression in E. coli” value is recorded as “not soluble”.

For “MASHIVGYPRMGPKRELKFALESFWDGKSTAEDLQKVSADLRSSIWKQMSAAGTKFIPSNTFAHYDQVLDTTAMLGAVPPRYGYTGGEIGLDVYFSMARGNASVPAMEMTKWFDTNYHYIVPELGPEVNFSYASHKAVNEYKEAKALGVDTVPVLVGPVSYLLLSKAAKGVDKSFELLSLLPKILPIYKEVITELKAAGATWIQLDEPVLVMDLEGQKLQAFTGAYAELESTLSGLNVLVETYFADIPAEAYKTLTSLKGVTAFGFDLVRGTKTLDLVKAGFPEGKYLFAGVVDGRNIWANDFAASLSTLQALEGIVGKDKLVVSTSCSLLHTAVDLINETKLDDEIKSWLAFAAQKVVEVNALAKALAGQKDEALFSANAAALASRRSSPRVTNEGVQKAAAALKGSDHRRATNVSARLDAQQKKLNLPILPTTTIGSFPQTVELRRVRREYKAKKVSEEDYVKAIKEEIKKVVDLQEELDIDVLVHGEPERNDMVEYFGEQLSGFAFTANGWVQSYGSRCVKPPVIYGDVSRPKAMTVFWSAMAQSMTSRPMKGMLTGPVTILNWSFVRNDQPRHETCYQIALAIKDEVEDLEKGGIGVIQIDEAALREGLPLRKSEHAFYLDWAVHSFRITNCGVQDSTQIHTHMCYSHFNDIIHSIIDMDADVITIENSRSDEKLLSVFREGVKYGAGIGPGVYDIHSPRIPSSEEIADRVNKMLAVLEQNILWVNPDCGLKTRKYTEVKPALKNMVDAAKLIRSQLASAK”, the “soluble on expression in E. coli” value is on record as “soluble”.

“MGHHHHHHSHMANSAGSMANSAGSMFKLYSLAREFARDLLFEINGDVVTLSIKGVLLANTSSTSSNFSIFEVSENEFILAIQTSGYVVYLGIEAEEEIEEEVYPSLVRIIISEVMPIINNLVQVAKELSYKGADILLDDNMSSSLREAMYNLLLKHKKGKSPYEQVEVA”: the “soluble on expression in E. coli” value was “not soluble”.

“MGHHHHHHSHMSTKVPIYLKRGSRKGKKEKLRDLLSSDMISPPLGDFRHTIHIGSGGGSDMFGDISFLQGKFHLLPGTMVEGPEEDGTFDLPFQFTRTATVCGRELPDGPSPLLKNAISLPVIGGPQALTLPTAQAPPKPPRLHLETPQPSPQEGGSVDIWRIPETGSPNSGLTPESGAEEPFLSSASSLLSLHVDLGPSILDDVLQIMDQDLDSMQIPT”: the “soluble on expression in E. coli” value is listed as “soluble”.

Take “MSLDKAPERVVSVGYTDDQTVLAFGIKPVGMVDQYPNPAGQSPDINTQWPWVKDKWGDTKPEVVMKNGDTGPNFEKIAALRPDLIVAVYSEIDQAAYDKLSKIAPTVGRTKGEKEPFSAPWQDNALHIAKALGKAEEGEKMVADIQGKLDAAKQAHPEFADKTAVVLSWYKDSVAPFTSTDVRGRLVTGIGFKYETEIDKVAGGDFYTTLSPERVDLVDVDRVFVINDKADQDALKKFELFTNLDAVKNGKVSYLLDSEGPAVGAAISQGTLLSMPYAVDELVKSAGEGHHHHHH”: the “soluble on expression in E. coli” value is recorded as “soluble”.

On to “MEAVLYVSHGSRIAAARHEAARFVEQCRRAIDIPIQELCFVELAEPDIVTGVDRCVAQGATRVIVVPLLLLSAGHAKHDIPAALDIARRRHPSVDILCGAPFGVHEAMIDIMIDRISEQSAPLDGESMILLVGRGSSDPDTKRDMSAIAALLKEKTNVPHVDVCFLAAIRPTLDEGLERAHASAYRRVFVVPYLLFTGVLMKTIERRLQGFSVSDKQWHLCSYLGDHPRLVLLIQQQVLSLSSVKKGA”, for which the “soluble on expression in E. coli” value was “soluble”.

Consider “AHHHHHHGSKRRAVVLFSGGLDSTACLYWAKKQYDEVIMLTVNYGSNEERVTNKVAEYFSKELDVRLKIVKLDFLKEFSEIRGSSLVGGEVPRVTAEELEDIEKASETARSVWIPARNLVLISVAASLLDALGGGDIIVGFNAEEATTFPDNSREFVEKLNEALRFATLNPVKVVAPLIDLDKRGIAKLLKELNAKYEYSNSCYNPKGFTEDGRPIHCGECESCVRRHKGLIEGIGEDKTVYAITPRI”, for which the “soluble on expression in E. coli” value is given as “not soluble”.

On to “MEALDLLLNRRSIAKLDAPAPQNEALDNILRAGLRAPDHGALTPWRFVVAQGEGLAKLAAILEQAEIANGSDEAVISKAKNAPFRAPMVITVIAKVTHSEKIPAFEQHLSAGCAVQAMQMAAIAQGFQGIWRSGSWMFHPVVRRAFNVQGEDHIVGFLYLGTPGTTAAKVPERELSKYVEYL”, for which the “soluble on expression in E. coli” value was “not soluble”.

As to “MGSDKIHHHHHHMNKQVSTRGTKEKALRLNLDDKKYGTIVEIGAGQEVARNFFVAGAAAGTIAKTMSAYDMTFSDAIYGVQQDGRYVSKARVQAMMEQELDLVIERVGDVRSKSSRYFTYAATVAAKSFNRNNECHAWCGVRVQMYPGAEPSNIVVHVRMFDDNAEAQQQALGVLGVNLIYAAYYYFEDPKKIIDSLTDDLKANRIEIDCIEFQGPYFEDIDSRAKNIHLIRSWKTRAIMFKPDGSVAVPAEMLYKKNVLTIRGSFKPVTKLNVDMIEQGEKAFAELEGVSKDNTIVIAEISLNDSHGKDANMSSTDIIERVKLLNLLGYNVMVSDYTRYFSLRAYFRQYTKLQIGIVVGMINIKQIFDETFYRGLEGGILEGFGKLFPDHTRVFVYPELSETGELKDLTTVNVPNNLRYLYRHLLDNGFITSIESSDINLFSYFSREILKQIAKGSDEWQQALPQPVIDEIISKKLFGYRG”, the “soluble on expression in E. coli” value is “not soluble”.

Take “MIPLEKPGSGGSSPGATSGSGRAGRGLSGPCRPPPPPQARGLLTEIRAVVRTEPFQDGYSLCPGRELGRGKFAVVRKCIKKDSGKEFAAKFMRKRRKGQDCRMEIIHEIAVLELAQDNPWVINLHEVYETASEMILVLEYAAGGEIFDQCVADREEAFKEKDVQRLMRQILEGVHFLHTRDVVHLDLKPQNILLTSESPLGDIKIVDFGLSRILKNSEELREIMGTPEYVAPEILSYDPISMATDMWSIGVLTYVMLTGISPFLGNDKQETFLNISQMNLSYSEEEFDVLSESAVDFIRTLLVKKPEDRATAEECLKHPWLTQSSIQEPSFRMEKALEEANALQEGHSVPEINSDTDKSETEESIVTEELIVVTSYTLGQCRQSEKEKMEQKAISKRFKFEEPLLQEIPGEFIY”: the “soluble on expression in E. coli” value was “soluble”.

Take “MGSDKIHHHHHHMAGATLLTSSCNDWLDVLPKNEQVSPEYWKTKEQVEEVLAQGYQNMRLTVPTLIYWGELRGASIYAYSGKSKQELQNFQLNSSSGECKWGGFYSILNVANSIIKYAPEVKRQDETYHEAVMNSNMAEAYFMRAWTYFTLVRNFKEVPLILEPYMTDEYAVDIPKSSEETIIAQIKLDIENALSTGAAKEMYDDEDWTGMSKGRVTVWALYALMADVCLWSEDYDGCVRYADMLINSTSAFRPAFVEDPEQWYNIFFPGNSNGSIFELNFDQSRNQSPDDDATASTYPSPSNVYPWTQSTVASLQFSNAMCKRLFDEQTDQWVTSNTVRGYGNTFVLSSGTVIGNSNTEGYLPFKFRIGGKDGLSTTRSYKDANWILYRMADVLLMKAEALIWKGGEANFAQALELINKIRTRANVTTLSVQTNAVSQENMLGYLLQERDLEFAAEGKRWYDLLRFGRSQNFKYKDQFINMIIENNSTVSASWIRSVLKNTDAWYLPISQGEIDSNPNLIQNPYYDVTAN”: the “soluble on expression in E. coli” value is reported as “not soluble”.
